Measured values from patent publication US20250277029A1 (Amgen, published 2025).
Positions count from the first letter of the chain named.

B1: LIBC527869-1 (antibody, V domains shown)
VH: QVQLQESGPGLVKPSQTLSLTCTVSGGNIRRGGDYWAWIRQHPGKGLEWIGHIYHTGKTNYNPSFKGRATISVKTYKNQFSLKLSSVTAADTAVYYCARNYDTLSGNSYYYYGMDVWGQGTTVTVSS
VL: DIQLTQSPSTLSASVGDRVTITCRASQSISNYLNWYQQKPGKAPKLLIYAASSLHSGVPSRFSGSGSGTDFTLTISSLQPEDFASYYCQQYQSYPLTFGQGTKVEIKR
B2: LIBC527984-1 (antibody, V domains shown)
VH: B1 VH with N28S, A37S, H55Q, S64N, G67S, K74N, N100D, T103I, S105T, N107Y
VL: B1 VL with L4M
B3: LIBC528169-1 (antibody, V domains shown)
VH: QVQLQESGPGLVKPSQTLSLTCTVSGGSIRRGGDYWSWIRQHPGKGLEWIGHIYQSGSTKYNPSFEDRATISVNTYKNQFSLKLSSVTAADTAVYYCARDYDILTGYSYYYYGMDVWGQGTTVTVSS
VL: B1 VL
B4: LIBC528141-1 (antibody, V domains shown)
VH: B3 VH with I53V, S56T, S64R, E66K, D67G
VL: B1 VL
B5: LIBC527827-1 (antibody, V domains shown)
VH: B3 VH with S37G, I53V, S58Q, K60A, S64K, D67N, N74K, D100N, I103T, Y107H
VL: B1 VL with L4M
B6: LIBC527906-1 (antibody, V domains shown)
VH: B3 VH with S37G, S56T, K60N, S64N, E66K, N74D
VL: B1 VL
B7: LIBC527968-1 (antibody, V domains shown)
VH: B3 VH with E66K
VL: B1 VL
B8: LIBC527879-1 (antibody, V domains shown)
VH: B3 VH with S37G, K60N, S64K, F65L, E66K, D67S, N74D, L104F
VL: B1 VL with T10S, S30I, N31S, H55R, S85T, Q92S, S93N, Q100G, K103R
B9: LIBC528148-1 (antibody, V domains shown)
VH: B3 VH with S58Q, S64K, F65L, E66K, D67G, N74D
VL: B1 VL
B10: LIBC527912-1 (antibody, V domains shown)
VH: B3 VH with H52Y, S56T, S58Q, S64N, D67G
VL: B1 VL with T10S, N31S, H55R, S85T, Q92S, S93N, Q100G, K103R
B11: LIBC523844-1 (antibody, V domains shown)
VH: B3 VH with I53V, Q55Y, S56T, E66K
VL: DIVMTQSPLSLPVTPGEPASISCRSSQSLLSSSGANYVDWYLQKPGQSPQLLIYQGSNRASGVPDRFSGSGSGTDFTLKISRVEAEDVGVYYCRQARALPRTFGQGTKVEIKR
B12: LIBC523862-1 (antibody, V domains shown)
VH: B3 VH with S56T, K60A, F65L, E66K, D67G
VL: B11 VL with S31H, S33T, Q55L, R97I
B13: LIBC523596-1 (antibody, V domains shown)
VH: B3 VH with I53V, S58Q, K60A, S64N, D100E, I103V, L104V, T105S
VL: B11 VL with S31T, A35Y, R94M, R97V, A98K, L99I
B14: LIBC523760-1 (antibody, V domains shown)
VH: B3 VH with I53V, S56T, S64K, E66K, D67G
VL: B11 VL with S31T, Q55L, R97V, A98G, L99T
B15: LIBC523748-1 (antibody, V domains shown)
VH: B3 VH with I53V, Q55Y, S56T, D67G, N74K
VL: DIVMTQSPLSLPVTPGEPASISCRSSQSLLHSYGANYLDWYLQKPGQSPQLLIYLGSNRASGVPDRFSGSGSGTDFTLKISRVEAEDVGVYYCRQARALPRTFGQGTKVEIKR
B16: LIBC528131-1 (antibody, V domains shown)
VH: B3 VH with S56T, S58Q, K60A, S64N, F65L, D67G
VL: EIVLTQSPATLSLSPGERATLSCRASQSVSSYLGWYQQKPGQAPRLLIYGASSRATGIPDRFSGSGSGTDFTLTISRLEPEDFAVYYCQQYGSSPRTFGQGTKVEIKR
B17: LIBC523868-1 (antibody, V domains shown)
VH: B3 VH with I53V, Q55Y, S56E, K60A
VL: B11 VL with S31T, S33Y, A35I, Q55L, R94M, A98Q, L99I
B18: LIBC523603-1 (antibody, V domains shown)
VH: B3 VH with S37A, I53V, S58Q, K60A, S64N, D67N, I103A, L104V, T105S
VL: B11 VL with S33Y, A35N, R97V, A98G
B19: LIBC523670-1 (antibody, V domains shown)
VH: QVQLQESGPGLVKPSQTLSLTCTVSGGSIRRGGDYWAWIRQHPGKGLEWIGHVYQTGQTAYNPNLESRATISVNTYKNQFSLKLSSVTAADTAVYYCARNYDVLSGYSYYYYGMDVWGQGTTVTVSS
VL: B11 VL with S31T, S33Y, V38L, R94M, R97L, A98Q, L99I
B20: LIBC523813-1 (antibody, V domains shown)
VH: B3 VH with I53V, Q55Y, S56T, S58Q, K60A, S64K, E66K, N74K
VL: B11 VL with Q55L, R94M, A98G, L99I
B21: LIBC523857-1 (antibody, V domains shown)
VH: B3 VH with S56T, S58Q, K60A, S64R, F65L, D67G
VL: B11 VL with S33T, V38L, Q55L, R97V, A98E
B22: LIBC523969-1 (antibody, V domains shown)
VH: B3 VH with S56T, S58Q, S64N, F65L, E66K, D67G
VL: B11 VL with S33T, V38L, R97V, A98G

Molecular target: human cannabinoid receptor 1 (huCB1), full length, expressed on cells (human, UniProt P21554 1-472)
Assay: cell-based or functional assay

Sequence of human cannabinoid receptor 1 (huCB1), full length, expressed on cells (P21554 whole entry): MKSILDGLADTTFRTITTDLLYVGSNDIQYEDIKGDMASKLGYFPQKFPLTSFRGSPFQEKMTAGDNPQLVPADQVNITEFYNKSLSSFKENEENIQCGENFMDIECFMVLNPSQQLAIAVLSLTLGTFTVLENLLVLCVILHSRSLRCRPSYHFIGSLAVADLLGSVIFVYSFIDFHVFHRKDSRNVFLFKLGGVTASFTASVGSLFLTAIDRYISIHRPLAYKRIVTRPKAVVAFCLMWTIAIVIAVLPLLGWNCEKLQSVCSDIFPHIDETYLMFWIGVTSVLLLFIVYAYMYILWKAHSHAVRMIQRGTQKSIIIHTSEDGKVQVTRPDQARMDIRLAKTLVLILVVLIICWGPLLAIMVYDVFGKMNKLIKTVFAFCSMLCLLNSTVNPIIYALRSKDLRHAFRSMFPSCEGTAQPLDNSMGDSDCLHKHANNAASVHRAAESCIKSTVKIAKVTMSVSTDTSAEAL

Binder	Mean IC50 (nM), cAMP antagonist assay	Mean IC50, -fold vs Rimo	n = 1 IC50 (nM), cAMP antagonist assay	n = 1 IC50, -fold vs Rimo	n = 2 IC50 (nM), cAMP antagonist assay	n = 2 IC50, -fold vs Rimo
B1	47 nM	15.7 fold vs Rimonabant	57.8 nM	13.7 fold vs Rimonabant	36.2 nM	20.2 fold vs Rimonabant
B2	4.25 nM	1.42 fold vs Rimonabant	7.24 nM	1.72 fold vs Rimonabant	1.27 nM	0.71 fold vs Rimonabant
B3	7.81 nM	2.6 fold vs Rimonabant	12.3 nM	2.92 fold vs Rimonabant	3.31 nM	1.85 fold vs Rimonabant
B4	4.05 nM	1.35 fold vs Rimonabant	6.26 nM	1.49 fold vs Rimonabant	1.84 nM	1.03 fold vs Rimonabant
B5	23.7 nM	7.89 fold vs Rimonabant	32 nM	7.6 fold vs Rimonabant	15.3 nM	8.54 fold vs Rimonabant
B6	5.15 nM	1.72 fold vs Rimonabant	7.66 nM	1.82 fold vs Rimonabant	2.64 nM	1.48 fold vs Rimonabant
B7	4.03 nM	1.34 fold vs Rimonabant	6.1 nM	1.45 fold vs Rimonabant	1.95 nM	1.09 fold vs Rimonabant
B8	3.95 nM	1.32 fold vs Rimonabant	6.12 nM	1.45 fold vs Rimonabant	1.78 nM	0.99 fold vs Rimonabant
B9	5.95 nM		9.1 nM			
B10	3.95 nM	1.32 fold vs Rimonabant	5.91 nM	1.4 fold vs Rimonabant	1.99 nM	1.11 fold vs Rimonabant
B11	3.83 nM	1.28 fold vs Rimonabant	6.2 nM	1.47 fold vs Rimonabant	1.46 nM	0.82 fold vs Rimonabant
B12	7.31 nM	2.44 fold vs Rimonabant	11.2 nM	2.66 fold vs Rimonabant	3.42 nM	1.91 fold vs Rimonabant
B13	8.99 nM				4 nM	
B14	4.28 nM	1.43 fold vs Rimonabant	6.12 nM	1.45 fold vs Rimonabant	2.44 nM	1.36 fold vs Rimonabant
B15	7 nM	2.33 fold vs Rimonabant	9.57 nM	2.27 fold vs Rimonabant	4.43 nM	2.48 fold vs Rimonabant
B16	4.23 nM	1.41 fold vs Rimonabant	6.63 nM	1.57 fold vs Rimonabant	1.83 nM	1.02 fold vs Rimonabant
B17	7.59 nM	2.53 fold vs Rimonabant	11.9 nM	2.81 fold vs Rimonabant	3.32 nM	1.86 fold vs Rimonabant
B18	4.72 nM	1.57 fold vs Rimonabant	7.29 nM	1.73 fold vs Rimonabant	2.16 nM	1.2 fold vs Rimonabant
B19	6.12 nM	2.04 fold vs Rimonabant	8.72 nM	2.07 fold vs Rimonabant	3.52 nM	1.97 fold vs Rimonabant
B20	5.95 nM	1.98 fold vs Rimonabant	8.96 nM	2.13 fold vs Rimonabant	2.94 nM	1.64 fold vs Rimonabant
B21	7.94 nM	2.65 fold vs Rimonabant	13.4 nM	3.18 fold vs Rimonabant	2.48 nM	1.39 fold vs Rimonabant
B22	3.86 nM	1.29 fold vs Rimonabant	6.45 nM	1.53 fold vs Rimonabant	1.26 nM	0.7 fold vs Rimonabant
